PMC10241913 (Nature Communications, 2023)
No end group written: not given here.

B1: HR23b-UBL (domain or fragment)
chain: not shown
notes: HR23b (RAD23B), UBL domain; The cited NMR structure of the HR23b-UBL domain is PDB 1P1A; 15N-labelled for the reverse titration; also called HR23b-UBL wt; UBL domain of HR23b; not shown: GST, N-terminal, cleaved

Experiments:
[1] = molecular target: T1, UBXD1 (1–441), recombinant, purified (human, UniProt Q9BZV1 1-441); assay: fluorescence polarisation; direct anisotropy titration of 5,6-FAM-p97-C10 peptide (0.1 µM in the displacement set-up) with UBXD1; settings: both partners purified
T1 construct: also called UBXD1-wt; UBXD1-fl; not shown: GST, N-terminal, cleaved
T1 sequence (looked up): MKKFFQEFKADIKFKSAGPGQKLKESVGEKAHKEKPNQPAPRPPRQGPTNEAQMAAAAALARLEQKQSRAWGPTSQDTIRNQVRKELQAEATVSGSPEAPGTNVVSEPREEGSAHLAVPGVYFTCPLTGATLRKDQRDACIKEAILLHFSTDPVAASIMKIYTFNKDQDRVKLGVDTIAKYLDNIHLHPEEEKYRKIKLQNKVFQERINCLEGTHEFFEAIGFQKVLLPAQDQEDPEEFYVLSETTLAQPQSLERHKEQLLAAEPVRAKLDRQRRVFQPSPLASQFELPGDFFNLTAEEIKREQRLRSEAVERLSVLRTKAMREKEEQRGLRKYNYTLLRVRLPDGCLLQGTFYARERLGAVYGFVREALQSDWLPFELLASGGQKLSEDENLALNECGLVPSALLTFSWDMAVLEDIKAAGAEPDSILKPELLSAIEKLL

[2] = molecular target: T2, UBXD1-PUB (150–264) (human, UniProt Q9BZV1 150-264); assay: NMR titration; 1H-15N-HSQC: 15N-UBXD1-PUB (400 µM) with HR23b-UBL (0 to 1300 µM), and the reverse titration of 15N-HR23b-UBL with UBXD1-PUB; 25 °C; settings: both partners purified
T2 construct: UBXD1 (UBXN6), human, PUB domain, residues 150-264; 15N-labelled for some NMR titrations; also called isolated PUB domain; His-UBXD1-PUB; source: E. coli Rosetta2, purified (Ni-NTA, thrombin cleavage, SEC); not shown: His6, N-terminal, cleaved
T2 sequence (looked up): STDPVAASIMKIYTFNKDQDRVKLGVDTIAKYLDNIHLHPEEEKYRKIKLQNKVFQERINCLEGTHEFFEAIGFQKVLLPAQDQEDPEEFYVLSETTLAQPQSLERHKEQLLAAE

Row | Binder | binding result [1] | Kd [2]
1 | {5,6‑FAM}-TEDNDDDLYG (p97/VCP, C-terminal residues 797-806) [5,6-FAM-p97-C10 peptide] | binds | –
2 | B1 | – | 1500 ± 900 µM
